Assay [1] addresses T1, hENG(26-586) (R&D Systems, catalog #1097-EN) (human, UniProt P17813 26-586).
T1 construct: also called soluble human ENG extracellular domain
T1 sequence: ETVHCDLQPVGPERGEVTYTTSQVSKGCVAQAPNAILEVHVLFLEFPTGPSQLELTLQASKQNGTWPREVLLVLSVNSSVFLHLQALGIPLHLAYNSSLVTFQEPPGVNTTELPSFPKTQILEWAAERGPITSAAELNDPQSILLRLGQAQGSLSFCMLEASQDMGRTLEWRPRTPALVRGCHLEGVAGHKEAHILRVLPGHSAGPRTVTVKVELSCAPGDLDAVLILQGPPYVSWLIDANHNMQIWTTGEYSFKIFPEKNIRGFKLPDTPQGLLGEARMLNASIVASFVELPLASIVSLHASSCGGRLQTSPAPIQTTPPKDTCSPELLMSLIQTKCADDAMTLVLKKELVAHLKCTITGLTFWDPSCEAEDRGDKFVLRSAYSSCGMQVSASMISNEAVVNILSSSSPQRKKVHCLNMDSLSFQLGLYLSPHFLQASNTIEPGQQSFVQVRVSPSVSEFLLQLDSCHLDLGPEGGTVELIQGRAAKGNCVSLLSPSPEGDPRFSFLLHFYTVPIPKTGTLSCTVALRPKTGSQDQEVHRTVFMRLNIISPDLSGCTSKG
Put plainly: SPR.

The target of assay [2] is T1, hENG(26-586) (R&D Systems, catalog …). Put plainly: SPR (Biacore), immobilized construct, soluble ligand. (In general: SPR reads the build-up and loss of mass on a sensor chip optically.)
For assay [3], the target named is T2, mENG(27-581)-hFc (R&D Systems, catalog #1320-EN) (murine; human, UniProt Q63961 27-581).
T2 construct: Bought protein; not shown: Fc domain of human IgG1
T2 sequence: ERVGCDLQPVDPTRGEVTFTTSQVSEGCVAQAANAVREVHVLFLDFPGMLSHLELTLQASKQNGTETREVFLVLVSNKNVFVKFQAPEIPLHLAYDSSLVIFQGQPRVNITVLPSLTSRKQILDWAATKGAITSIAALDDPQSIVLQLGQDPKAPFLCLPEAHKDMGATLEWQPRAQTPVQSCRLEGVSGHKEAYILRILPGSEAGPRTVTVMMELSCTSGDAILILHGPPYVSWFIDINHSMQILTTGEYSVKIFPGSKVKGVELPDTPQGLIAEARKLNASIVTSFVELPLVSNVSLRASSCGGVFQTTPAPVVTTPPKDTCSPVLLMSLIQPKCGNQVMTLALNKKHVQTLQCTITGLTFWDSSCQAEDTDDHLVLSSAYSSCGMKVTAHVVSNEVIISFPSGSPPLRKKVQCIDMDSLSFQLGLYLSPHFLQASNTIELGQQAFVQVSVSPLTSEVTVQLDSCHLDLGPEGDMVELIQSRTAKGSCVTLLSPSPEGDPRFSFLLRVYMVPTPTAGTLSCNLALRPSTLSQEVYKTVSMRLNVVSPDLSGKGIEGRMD
The assay is described as follows: SPR (Biacore), captured construct, soluble ligand.

The target in the next assay is T3, human BMP-10 (human, UniProt O95393 317-424).
T3 construct: also called hBMP-10
T3 sequence (looked up): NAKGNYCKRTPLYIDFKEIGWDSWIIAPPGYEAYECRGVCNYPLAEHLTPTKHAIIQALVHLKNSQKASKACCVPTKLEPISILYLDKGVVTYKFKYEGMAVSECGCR
Put plainly: SPR, captured hENG-hFc, soluble ligand.

The next assay deals with T4, human BMP-9 (human, UniProt Q9UK05 320-429).
T4 construct: also called hBMP-9
T4 sequence (looked up): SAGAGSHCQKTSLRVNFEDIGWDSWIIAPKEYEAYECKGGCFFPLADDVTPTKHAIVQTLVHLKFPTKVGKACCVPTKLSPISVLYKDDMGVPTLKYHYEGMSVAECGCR
The assay is described as follows: SPR, captured hENG-hFc, soluble ligand.

B1: bone morphogenetic protein receptor II (receptor, human, UniProt Q13873 27-150, looked up)
chain: SQNQERLCAFKDPYQQDLGIGESRISHENGTILCSKGSTCYGLWEKSKGDINLVKQGCWSHIGDPQECHYEECVVTTTPPSIQNGTYRFCCCSTDLCNVNFTENFPPPDTTPLSPPHSFNRDET
notes: also called BMPRII
Turning to B1, in assay [1], the binding result was “no binding”.

B2: ALK2 (receptor, human, UniProt Q04771 21-123, looked up)
chain: MEDEKPKVNPKLYMCVCEGLSCGNEDHCEGQQCFSSLSINDGFHVYQKGCFQVYEQGKMTCKTPPSPGQAVECCQGDWCNRNITAQLPTKGKSFPGTQNFHLE
notes: Member of the printed range ALK2-ALK7; also called type I receptor ALK2
As to B2, the binding result in assay [1] is “no binding”.

B3: ALK5 (receptor, human, UniProt P36897 34-126, looked up)
chain: LQCFCHLCTKDNFTCVTDGLCFVSVTETTDKVIHNSMCIAEIDLIPRDRPFVCAPSSKTGSVTTTYCCNQDHCNKIELPTTVKSSPGLGPVEL
notes: Member of the printed range ALK2-ALK7; also called type I receptor ALK5
Regarding B3, the binding result in assay [1] was “no binding”.

B4: ALK4 (receptor, human, UniProt P36896 24-126, looked up)
chain: SGPRGVQALLCACTSCLQANYTCETDGACMVSIFNLDGMEHHVRTCIPKVELVPAGKPFYCLSSEDLRNTHCCYTDYCNRIDLRVPSGHLKEPEHPSMWGPVE
notes: Member of the printed range ALK2-ALK7; also called type I receptor ALK4
Take B4: the binding result in assay [1] is on record as “no binding”.

B5: human TGF-β2 (ligand, UniProt P61812 303-414, looked up)
chain: ALDAAYCFRNVQDNCCLRPLYIDFKRDLGWKWIHEPKGYNANFCAGACPYLWSSDTQHSRVLSLYNTINPEASASPCCVSQDLEPLTILYYIGKTPKIEQLSNMIVKSCKCS
notes: also called hTGF-β2
Consider B5, for which the binding result is “no binding (tested: 25 nM)” in assay [2] and “no binding (tested: 10 nM)” in assay [3].

B6: hENG(360-437)-hFc (Fc fusion)
chain: QTKCADDAMTLVLKKELVAHLKCTITGLTFWDPSCEAEDRGDKFVLRSAYSSCGMQVSASMISNEAVVNILSSSSPQR
notes: Expressed in COS cells, not purified; not shown: human IgG1 Fc domain
On to B6, for which the binding result in the assay with human BMP-10 and with human BMP-9 was “no binding (tested: 100 nM)” throughout.

B7: hENG(360-457)-hFc (Fc fusion)
chain: QTKCADDAMTLVLKKELVAHLKCTITGLTFWDPSCEAEDRGDKFVLRSAYSSCGMQVSASMISNEAVVNILSSSSPQRKKVHCLNMDSLSFQLGLYLS
notes: as for B6
As for B7, the binding result with human BMP-10 and with human BMP-9 was “no binding (tested: 100 nM)” in each case.

B8: human BMP-2 (ligand, UniProt P12643 283-396, looked up)
chain: QAKHKQRKRLKSSCKRHPLYVDFSDVGWNDWIVAPPGYHAFYCHGECPFPLADHLNSTNHAIVQTLVNSVNSKIPKACCVPTELSAISMLYLDENEKVVLKNYQDMVVEGCGCR
notes: also called hBMP-2
As for B8, the binding result in assay [2] and in assay [3] was “no binding (tested: 25 nM)” throughout.

B9: hBMP-2/7 (ligand, human)
chain 1: QAKHKQRKRLKSSCKRHPLYVDFSDVGWNDWIVAPPGYHAFYCHGECPFPLADHLNSTNHAIVQTLVNSVNSKIPKACCVPTELSAISMLYLDENEKVVLKNYQDMVVEGCGCR
chain 2: STGSKQRSQNRSKTPKNQEALRMANVAENSSSDQRQACKKHELYVSFRDLGWQDWIIAPEGYAAYYCEGECAFPLNSYMNATNHAIVQTLVHFINPETVPKPCCAPTQLNAISVLYFDDSSNVILKKYRNMVVRACGCH
notes: read as the BMP-2/BMP-7 heterodimer
For the molecule B9, the binding result in assay [2] and in assay [3] was “no binding (tested: 25 nM)” throughout.

B10: human activin A (ligand, UniProt P08476 311-426, looked up)
chain: GLECDGKVNICCKKQFFVSFKDIGWNDWIIAPSGYHANYCEGECPSHIAGTSGSSLSFHSTVINHYRMRGHSPFANLKSCCVPTKLRPMSMLYYDDGQNIIKKDIQNMIVEECGCS
notes: also called hActivin A
Regarding B10, the binding result in assay [2] and in assay [3] was “no binding (tested: 25 nM)” each time.

B11: ALK7 (receptor, human, UniProt Q8NER5 21-113, looked up)
chain: ELSPGLKCVCLLCDSSNFTCQTEGACWASVMLTNGKEQVIKSCVSLPELNAQVFCHSSNNVTKTECCFTDFCNNITLHLPTASPNAPKLGPME
notes: Member of the printed range ALK2-ALK7; also called type I receptor ALK7
In the case of B11, the binding result in assay [1] was “no binding”.

B12: activin receptor IIB (receptor, human, UniProt Q13705 19-134, looked up)
chain: SGRGEAETRECIYYNANWELERTNQSGLERCEGEQDKRLHCYASWRNSSGTIELVKKGCWLDDFNCYDRQECVATEENPQVYFCCCEGNFCNERFTHLPEAGGPEVTYEPPPTAPT
notes: also called ActRIIB
B12: in assay [1], the binding result is reported as “no binding”.

B13: human BMP-7 (ligand, UniProt P18075 293-431, looked up)
chain: STGSKQRSQNRSKTPKNQEALRMANVAENSSSDQRQACKKHELYVSFRDLGWQDWIIAPEGYAAYYCEGECAFPLNSYMNATNHAIVQTLVHFINPETVPKPCCAPTQLNAISVLYFDDSSNVILKKYRNMVVRACGCH
notes: also called hBMP-7
With B13, the binding result in assay [2] and in assay [3] was “no binding (tested: 25 nM)” throughout.

B14: ALK6 (receptor, human, UniProt O00238 14-126, looked up)
chain: KKEDGESTAPTPRPKVLRCKCHHHCPEDSVNNICSTDGYCFTMIEEDDSGLPVVTSGCLGLEGSDFQCRDTPIPHQRRSIECCTERNECNKDLHPTLPPLKNRDFVDGPIHHR
notes: Member of the printed range ALK2-ALK7; also called type I receptor ALK6
Consider B14, for which the binding result in assay [1] is reported as “no binding”.

B15: human TGF-β3 (ligand, UniProt P10600 301-412, looked up)
chain: ALDTNYCFRNLEENCCVRPLYIDFRQDLGWKWVHEPKGYYANFCSGPCPYLRSADTTHSTVLGLYNTLNPEASASPCCVPQDLEPLTILYYVGRTPKVEQLSNMVVKSCKCS
notes: also called hTGF-β3
On to B15, for which the binding result in assay [2] was “no binding (tested: 25 nM)”; in assay [3], “no binding (tested: 10 nM)”.

B16: hENG(258-346)-hFc (Fc fusion)
chain: YVSWLIDANHNMQIWTTGEYSFKIFPEKNIRGFKLPDTPQGLLGEARMLNASIVASFVELPLASIVSLHASSCGGRLQTSPAPIQTTPP
notes: not shown: human IgG1 Fc domain
Turning to B16, the binding result in the assay with human BMP-10 and with human BMP-9 was “no binding (tested: 100 nM)” throughout.

B17: TGF-β receptor II (receptor, human, UniProt P37173 24-159, looked up)
chain: IPPHVQKSVNNDMIVTDNNGAVKFPQLCKFCDVRFSTCDNQKSCMSNCSITSICEKPQEVCVAVWRKNDENITLETVCHDPKLPYHDFILEDAASPKCIMKEKKKPGETFFMCSCSSDECNDNIIFSEEYNTSNPD
In the case of B17, the binding result in assay [1] is listed as “no binding”.

B18: ALK3 (receptor, human, UniProt P36894 24-152, looked up)
chain: QNLDSMLHGTGMKSDSDQKKSENGVTLAPEDTLPFLKCYCSGHCPDDAINNTCITNGHCFAIIEEDDQGETTLASGCMKYEGSDFQCKDSPKAQLRRTIECCRTNLCNQYLQPTLPPVVIGPFFDGSIR
notes: Member of the printed range ALK2-ALK7; also called type I receptor ALK3
With B18, the binding result in assay [1] is listed as “no binding”.
